Measurements as given in the nanobody polyreactivity screen of Harvey et al. (2022).

Test: yeast display, Sf9 membrane polyspecificity reagent, FACS + sequencing; frameworks hold sequencing errors
Procedure, shortened: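 A synthetic nanobody library was expressed on Saccharomyces cerevisiae BJ5465 by galactose induction for 36–48 hours. The library was stained for 1 hour at 4 °C with 10% biotinylated, detergent-solubilized Sf9 membrane reagent and enriched with streptavidin microbeads before FACS. Low and high (top ~1%) gates were set on anti-HA fluorescence for expression and streptavidin fluorescence for reagent binding, and each polyreactivity label reflects the gate of origin.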

| Sequence | polyreactivity (PSR sort gate) |
| --- | --- |
| QVQLVESGGGLVQAGGSLRLSCAASGSIFSTYGMGWYRQAPGKERELVAAITTSGGRTYYADSVKGRFTISRDNAKNTVYLQMKSLKPEVTAVYYCKAVRGGRYGLDYWGQGTQVNVSS | high polyreactivity |
| QVQLVESGGGLVQAGGSLRLSCAASGSIFSVNTMGWYRQAPGKERELVAAISESGDGTYYADSVKGRFTISRDNAKNTVYLQMNSLKPEDTAVYYCNADRQKGGGYYPHEFDYWGQGTQVTVSS | low polyreactivity |
| QVQLVESGGGLVQAGGSLRLSCAASGSIFSVYAMGWYIQAPGKEREFVASISGGSGRTYYADSVKGRFTISRDNAKNTVYLQMNSLKPEDTAVYYCAAAYWAYDTGKMGYWGQGTQVTVSS | low polyreactivity |
| QVQLVESGGGLVQAGGSLRLSCAASGSIFSWNAMGWYRQAPGKERELVAGITWSGGGTSYADSVKGRFTISRDNAKNTVYLQMNSLKPEDTAVYYCAKEWIFDFNYWGQGTQVTVSS | low polyreactivity |
| QVQLVESGGGLVQAGGSLRLSCAASGSIFSWYAMGWYRQAPGKERELVAAISSRGGSTYYADSVKGRFTISRDTAKNTVYLQMYSLKPEDTAVYYCNTTYGYSTYWASGKYDYWGQGTQVTVSS | low polyreactivity |
| QVQLVESGGGLVQAGGSLRLSCAASGSIFSYNAMGWDRQAPGKESELVAAITSGGGTNYADSVKGRFTISRDNAKNTVYLQINSLKPEDTAVYYCNAVPNYYDYDSWGQGTQVTVSS | high polyreactivity |
| QVQLVESGGGLVQAGGSLRLSCAASGSIFSYNAMGWYRQAPGKERELVADITGSGGSTYYADSVKGRFTISRDNAKNTVYLQMNSLKPEDTAVYYCNAVGQYYYLGYDYWGQGTQVTVSS | low polyreactivity |
| QVQLVESGGGLVQAGGSLRLSCAASGSIFSYNVIGWYRQAPGKEREMVATITVDGTSTYYADSVKGRFTISRDNAKNTVYLQMNSLKPEDTAVYDCAADETASFTQEYEEMEYWGQGTQVTVSS | low polyreactivity |
| QVQLVESGGGLVQAGGSLRLSCAASGSIFSYYAMGRYRQAPGKEREIVAAISWSGGSTYYADSVKGRFTISRDNAKNTVYLQMNSLKPEDTAVYYCAAELSLSWLVPDVPYYYWGQGTQVTVSS | low polyreactivity |
| QVQLVESGGGLVQAGGSLRLSCAASGSIFSYYAMGWSRQAPGKERELVATISWSGGSTYYADSVKGRFTISRDNAKNTVYLQMNSLKPEDTAVYYCAARIWTGRGRKLGYGYDYWGQGTQVTVSS | low polyreactivity |
| QVQLVESGGGLVQAGGSLRLSCAASGSIFSYYAMGWYRQAPGKERELVAAISKRGASTYYADSVKGRFTISRDNAKNTVYLQMNSLKPEDTAVYYCAAYRQGSAYDYWGQGTQVTVSS | high polyreactivity |
| QVQLVESGGGLVQAGGSLRLSCAASGSIFSYYAMGWYRQAPGKERELVAAISRGGSTYYADSVKGRFTISRDKAKNTVYLQMNSLKPEDTAVYYCNVDSFRYRHTGYGYTRYGYWGQGTQVTVSS | high polyreactivity |
| QVQLVESGGGLVQAGGSLRLSCAASGSIFSYYAMGWYRQAPGKERELVASITYSGGSTYYADSVKGRFTISRDNAKNTVYLQMNSLKPEDTAVYYCAAPLAYEGDYWGQGTQVTVSS | low polyreactivity |
| QVQLVESGGGLVQAGGSLRLSCAASGSIFSYYAMGWYRQAPGKERELVATISNSGVSTYYADSVKGRFTISRDNAKNTVYLQMNSLKPEDTAVYYCAKEWLYYNGFFRSYYWGQGTQVTVSS | high polyreactivity |
| QVQLVESGGGLVQAGGSLRLSCAASGSIFSYYAMGWYRQAPGKERELVAVISSSGGRTYYADSVKGRFTISRDNAKNTVYLQMNSLKPEDTAVYYCARERWWGGSDYWGQGTQVTVSS | high polyreactivity |
| QVQLVESGGGLVQAGGSLRLSCAASGSIFSYYAMGWYRQAPGKETEVVAAISQNGGSTYYADSVKGRVTISRDNAKNTVYLQMNSLKPEDTAVYYCNAYSVYVRGEYWGQGTQVTVSS | high polyreactivity |
| QVQLVESGGGLVQAGGSLRLSCAASGSIFSYYAMGWYRQSPGNERELVAAITWSGGSTNYADSVKGRFTISRDNAKNTVYLQMTSLKPEDTAVYYCAADYWAWGKNEYDYWGQGTQVTVSS | low polyreactivity |
